Source: patent US8008021B2, “N-terminal truncation of cardiac troponin subunits and their roles in cardiovascular disease” (Evanston Northwestern Healthcare, priority 2006, dated 2011)

T1: myofibril associated μ-calpain (Mus musculus, UniProt O35350)
T1 construct: To test whether endogenous calpain in the cardiac muscle contributes to TnT NH2-terminal modification; from tissue
T1 sequence (O35350 1-713): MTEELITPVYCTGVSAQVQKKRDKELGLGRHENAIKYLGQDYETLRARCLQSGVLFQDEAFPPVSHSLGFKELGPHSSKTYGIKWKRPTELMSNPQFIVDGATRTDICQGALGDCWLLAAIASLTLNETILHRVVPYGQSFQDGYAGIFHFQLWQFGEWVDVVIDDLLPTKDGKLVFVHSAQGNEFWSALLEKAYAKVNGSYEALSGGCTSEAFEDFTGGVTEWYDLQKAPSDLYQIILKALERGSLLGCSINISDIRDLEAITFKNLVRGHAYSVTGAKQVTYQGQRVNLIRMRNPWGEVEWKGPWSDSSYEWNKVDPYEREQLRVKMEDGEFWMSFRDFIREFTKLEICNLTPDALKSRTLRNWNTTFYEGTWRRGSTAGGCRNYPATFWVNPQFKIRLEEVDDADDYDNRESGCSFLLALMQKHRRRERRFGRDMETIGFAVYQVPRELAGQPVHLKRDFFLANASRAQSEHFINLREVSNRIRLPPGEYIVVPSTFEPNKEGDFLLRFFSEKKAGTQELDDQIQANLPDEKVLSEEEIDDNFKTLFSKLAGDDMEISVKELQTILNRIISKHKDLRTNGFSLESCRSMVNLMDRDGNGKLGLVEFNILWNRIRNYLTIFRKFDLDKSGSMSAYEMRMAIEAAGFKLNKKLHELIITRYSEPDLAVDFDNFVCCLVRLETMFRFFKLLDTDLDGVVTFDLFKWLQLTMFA
T1 sequence (O88456 1-268 partner): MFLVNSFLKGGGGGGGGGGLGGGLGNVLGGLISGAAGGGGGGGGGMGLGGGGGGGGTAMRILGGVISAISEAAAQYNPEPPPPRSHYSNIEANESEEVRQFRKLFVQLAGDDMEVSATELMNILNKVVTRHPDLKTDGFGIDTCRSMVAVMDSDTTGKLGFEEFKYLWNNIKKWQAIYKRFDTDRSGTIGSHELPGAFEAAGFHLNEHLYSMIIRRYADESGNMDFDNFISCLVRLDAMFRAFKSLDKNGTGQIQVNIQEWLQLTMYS


Legend:
bovine cardiac TnI = biological target: T2, bovine cardiac TnI (Bos taurus, UniProt P08057); assay: ELISA solid phase protein binding of immobilized cTnT to TnI; conditions: for EC50: immobilized mouse cTnT, mean ± SD, read-out: concentration of TnI required to reach 50% of maximum binding; for change in binding to TnI on decrease of pH: pH from 7.0 to 6.2
T2 construct: Bovine cardiac TnI was purified from ventricular muscle as described previously (19); from tissue; host or cells: bovine ventricular muscle
Method: (§1) Protein binding assays. Enzyme-linked immunosorbant assay (ELISA) solid phase protein binding experiments (21) were performed to investigate the interactions of the NH2-terminal truncated cTnT with TnI and tropomyosin. Purified intact and NH2-terminal truncated mouse cTnT or BSA control were dissolved at 5 μg/mL in Buffer A (0.1 M KCl, 3 mM MgCl2, 20 mM PIPES, pH 7.5) and coated onto 96-well microtiter plates by incubation at 4° C. overnight. After washes with Buffer T (Buffer A containing 0.05% polyoxyethylene 20 (TWEEN®20)) at pH 7.5 to remove the unbound protein, the plates were blocked with Buffer T at pH 7.0 or 6.2 containing 1% BSA. The immobilized cTnT was incubated with serial dilutions of bovine cardiac TnI or rabbit α-tropomyosin in Buffer T (at the blocking pH) containing 0.1% BSA at room temperature for 2 hours. After one wash with Buffer T of the blocking pH and two washes with Buffer T at pH 7.0, the bound TnI or tropomyosin was quantified via incubation at pH 7.0 and room temperature for 1 hour with the anti-TnI mAb TnI-1 (46) or an anti-tropomyosin mAb CH1 (47), respectively. The plates were then processed by a standard ELISA procedure, including pH 7.0 Buffer T washes, horse radish peroxidase-conjugated anti-mouse immunoglobulin second antibody (Sigma) incubation, and H2O2/2,2′-azinobis-(3-ethylbenzthiazolinesulfonic acid) substrate reaction (21). A405 nm of each assay well was recorded at a series of time points by an automated microtiter plate reader (BioRad Benchmark). The A405 nm values in the linear course of the color development were used to plot the protein binding affinity curves. All experiments were done in triplicate.

rabbit α-tropomyosin = biological target: T3, rabbit α-tropomyosin (Oryctolagus cuniculus, UniProt P58772); assay: ELISA solid phase protein binding of immobilized cTnT to tropomyosin; conditions: for EC50: immobilized mouse cTnT, mean ± SD, read-out: concentration of tropomyosin for 50% maximum binding; for change in binding to tropomyosin on decrease of pH: pH from 7.0 to 6.2
T3 construct: Rabbit α-tropomyosin was purified from ventricular muscle as described previously (44); from tissue; host or cells: rabbit ventricular muscle
Method: as §1

[1] = biological target: T1, myofibril associated μ-calpain; assay: Calpain inhibition of cTnT-ND production in TRITON X-100 extracted ventricular muscle strips (Western blot densitometry); format: biochemical; conditions: 100 μM hydrogen peroxide
Method: (§2) SDS-PAGE and Western blotting. Ventricular muscle tissues or myocytes were homogenized in Laemmli SDS-PAGE sample buffer containing 2% SDS, heated at 80° C. for 5 min, and clarified by centrifugation. Total protein extracts were resolved by 14% Laemmli gel with an acrylamide:bisacrylamide ratio of 180:1 (low cross linker) or by 15% Laemmli gel with an acrylamide:bisacrylamide ratio of 29:1 (high cross linker). The gels were stained with Coomassie Brilliant Blue R250 to reveal the resolved protein bands. Duplicate gels were electrically blotted to nitrocellulose membranes, as described previously (21). After blocking in Tris-buffered saline (TBS) containing 1% bovine serum albumin (BSA), the membrane was incubated with anti-TnT mAbs CT3, 2C8, or polyclonal antibody RATnT. The membranes were then washed with high stringency using TBS containing 0.5% TRITON® X-100 and 0.05% SDS, incubated with alkaline phosphatase-conjugated anti-mouse IgG or anti-rabbit IgG second antibodies (Sigma), washed again, and developed in 5-bromo-4-chloro-3-indolylphosphate/nitro blue tetrazolium substrate solution, as described previously (21).
TRITON® X-100 extraction of ventricular muscle strips. In an ice container, ventricular muscle was cut with a sharp razor blade into fine pieces approximately the size of isolated trabeculae. The muscle strips were washed in relaxing solution containing […], 2 mM MgCl2, 2 mM EGTA, 10 mM Tris, 0.5 mM DTT, 0.1 mM PMSF and 2 mM Na4P2O7. After centrifugation at 2,800×g at 4° C. for 15 min, the pellet was skinned in relaxing solution plus 0.5% (w/w) TRITON® X-100 at 4° C. with rotation for 10 min. After centrifugation at 14,000×g at 4° C. for 20 min, the pellet was suspended in relaxing solution without TRITON® X-100 and incubated at 37° C. with rotation. Samples were collected at a series of time points for SDS-PAGE and Western blotting to examine the modifications of cTnT and other myofibrillar proteins.
Calpain inhibition. To test whether endogenous calpain in the cardiac muscle contributes to TnT NH2-terminal modification, several different calpain inhibitors were applied to the TRITON® X-100 extraction procedure. […] TRITON® X-100 treatment of mouse ventricular muscle strips was carried out as above in the presence or absence of 100 μM hydrogen peroxide and the effect on cTnT modification was examined by Western blotting.
The effects of two cell membrane-permissible nonpeptide calpain inhibitors, PD 150606 and PD 151746 (Calbiochem), were also tested. […] PD 150606 and […] were separately added to the relaxing solution before TRITON® X-100 treatment and incubated with the minced ventricular muscle at 4° C. for 10 minutes to allow the inhibitor to penetrate cell membrane and bind to calpain. After TRITON® X-100 extraction, samples were collected for SDS-PAGE and Western blotting to examine the effect on cTnT modification.

[2] = system: cTnT in bovine cardiac myofibrils; assay: μ-Calpain treatment of cardiac myofibrils (mAb CT3 Western blot densitometry); format: biochemical; conditions: 20 U/ml μ-calpain
Method: as §2
Mu-Calpain treatment of cTnT. […] The samples were analyzed by SDS-PAGE and Western blotting as described above. […]

Row | Molecule | EC50 (bovine cardiac TnI) [nM] | change in binding to TnI on decrease of pH (bovine cardiac TnI) | EC50 (rabbit α-tropomyosin) [nM] | change in binding to tropomyosin on decrease of pH (rabbit α-tropomyosin) | cTnT-ND production reduced to ([1]; TRITON X-100 extracted exon 7-deleted transgenic mouse ventricular muscle strips) [%] | decrease in cTnT-ND72-291 ([1]; TRITON X-100 treated mouse ventricular muscle strips) | maximum binding to TnI, compared with intact cTnT (bovine cardiac TnI; FIG. 12A insert) | level of maximum binding to tropomyosin, compared with intact cTnT (rabbit α-tropomyosin; FIG. 12B insert) | NH2-terminal truncated cTnT (cTnT ND) as share of total cTnT (truncated plus intact) ([2]; 0% at 0 U/ml) [%] | intact cTnT remaining ([2]; 100% at 0 U/ml) [%]
1 | intact cTnT: intact mouse cardiac troponin T (TnT4) expressed in E. coli | 15.3 ± 1.36 | did not result in significant change | 13.5 ± 1.38 | did not result in significant change |  |  |  |  |  | 
2 | OO [hydrogen peroxide] |  |  |  |  | 65 | approximately 35% |  |  |  | 
3 | cTnT ND: NH2-terminal truncated mouse cardiac troponin T lacking amino acids 1-71, expressed in E. coli | 8.73 ± 1.15 | did not result in significant change | 9.73 ± 0.185 | did not result in significant change |  |  | No significant difference | not significantly changed |  | 
4 | μ-calpain: calcium activated cysteine protease (Calbiochem) used to treat cTnT, troponin complex and myofibrils (protein, UniProt P07384 2-714, looked up) Calpain-1 catalytic subunit: SEEIITPVYCTGVSAQVQKQRARELGLGRHENAIKYLGQDYEQLRVRCLQSGTLFRDEAFPPVPQSLGYKDLGPNSSKTYGIKWKRPTELLSNPQFIVDGATRTDICQGALGDCWLLAAIASLTLNDTLLHRVVPHGQSFQNGYAGIFHFQLWQFGEWVDVVVDDLLPIKDGKLVFVHSAEGNEFWSALLEKAYAKVNGSYEALSGGSTSEGFEDFTGGVTEWYELRKAPSDLYQIILKALERGSLLGCSIDISSVLDMEAITFKKLVKGHAYSVTGAKQVNYRGQVVSLIRMRNPWGEVEWTGAWSDSSSEWNNVDPYERDQLRVKMEDGEFWMSFRDFMREFTRLEICNLTPDALKSRTIRKWNTTLYEGTWRRGSTAGGCRNYPATFWVNPQFKIRLDETDDPDDYGDRESGCSFVLALMQKHRRRERRFGRDMETIGFAVYEVPPELVGQPAVHLKRDFFLANASRARSEQFINLREVSTRFRLPPGEYVVVPSTFEPNKEGDFVLRFFSEKSAGTVELDDQIQANLPDEQVLSEEEIDENFKALFRQLAGEDMEISVKELRTILNRIISKHKDLRTKGFSLESCRSMVNLMDRDGNGKLGLVEFNILWNRIRNYLSIFRKFDLDKSGSMSAYEMRMAIESAGFKLNKKLYELIITRYSEPDLAVDFDNFVCCLVRLETMFRFFKTLDTDLDGVVTFDLFKWLQLTMFA |  |  |  |  |  |  |  |  | 98 | 1.5
